From publication PMC5957452, “Structural basis for overhang excision and terminal unwinding of DNA duplexes by TREX1” (PLoS Biology, 2018)

Target: the molecule itself
Experiment: crystal structure; TREX1 (15-25 mg/mL) in 300 mM NaCl, 50 mM Tris-HCl pH 7.0 mixed with DNA substrates at molar ratio 1:1.5; four TREX1-DNA complex crystals, TREX1 dimer in the asymmetric unit

B1: Three prime repair exonuclease 1 (TREX1), mouse, residues 1-242 (C-terminal transmembrane domain truncated) (enzyme, Mus musculus, UniProt Q91XB0 1-242, looked up)
chain: MGSQTLPHGHMQTLIFLDLEATGLPSSRPEVTELCLLAVHRRALENTSISQGHPPPVPRPPRVVDKLSLCIAPGKACSPGASEITGLSKAELEVQGRQRFDDNLAILLRAFLQRQPQPCCLVAHNGDRYDFPLLQTELARLSTPSPLDGTFCVDSIAALKALEQASSPSGNGSRKSYSLGSIYTRLYWQAPTDSHTAEGDVLTLLSICQWKPQALLQWVDEHARPFSTVKPMYGTPATTGTT
notes: TREX1, Mus musculus, residues 1-242, subcloned into the BamHI/XhoI site of pET28a; C-terminal transmembrane domain truncated; His-tagged or non-His-tagged (thrombin-treated) TREX1 was used for crystallization; Crystals also hold DNA substrates and Mg2+; also called mTREX1; wild-type TREX1; source: E. coli BL21-CodonPlus(DE3)-RIPL or Rosetta2(DE3)pLysS, purified (Ni-NTA, HiTrap Heparin, Superdex …)
  binding result: binds
